Reference: the supplement of paper PMC10126150
± gives the standard deviation of the averaged measurements.

Each sequence was assayed on ATP (assay: switch fluorescence ratio, 500 uM ATP over buffer (Cy3 cluster intensity, sum of 5 cycles each) (fold (ratio)); higher = stronger signal-on switching upon ATP binding; sequences stand for … in TCGTCGGCAGCGTCAGATGTGTATAAGAGACAGTTTTTTTTTTTTTTTTTTTTTTTTT…TC). Settings: aptamer strand: ATP DNA aptamer (quencher-CACCTGGGGGAGTATTGCGGAGGAAGG + anchor), 100 nM annealed; ATP concentration: 500 uM.
Outline: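 Exposure to 500 uM ATP lasted 15 min at 22 °C before imaging, and a selection-buffer image was taken beforehand, for Cy3-labelled switching-strand clusters on a modified Illumina MiSeq flow-cell annealed to 100 nM quencher-labelled ATP aptamer. Five buffer/ATP cycles were run with NaOH stripping and re-annealing between them. The fluorescence ratio per cluster is summed target-cycle over summed buffer-cycle Cy3 intensity, averaged per switch-domain sequence. Clusters outside 100-1000 RFU were excluded.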
Sequence GCTCGTAACT has a switch fluorescence ratio of 1 ± 0.0065.
GCTCGTAGGC was tested, and the switch fluorescence ratio was 0.99 ± 0.054.
GCTCTAGGGA was tested, and the switch fluorescence ratio was 0.984 ± 0.043.
For GCTCTCAGGT, the switch fluorescence ratio was 1.12 ± 0.043.
GCTCTCGGTG gave a switch fluorescence ratio of 1.01 ± 0.017.
GCTCTGTTGG was tested, and the switch fluorescence ratio was 1.01 ± 0.048.
With GCTCTTAAGG the switch fluorescence ratio was 0.982 ± 0.051.
GCTGAAATTT gave a switch fluorescence ratio of 1.01 ± 0.056.
In the case of GCTGAAGGAT, the switch fluorescence ratio is reported as 1 ± 0.0058.
GCTGAATTGG showed a switch fluorescence ratio of 1.04 ± 0.053.
Work on GCTGACATTC yielded a switch fluorescence ratio of 0.992 ± 0.04.
GCTGACGTTA was tested, and the switch fluorescence ratio was 1.1 ± 0.011.
GCTGAGAGGC was tested, and the switch fluorescence ratio was 1 ± 0.038.
With GCTGAGGATG the switch fluorescence ratio was 0.9799 ± 0.0058.
Sequence GCTGAGGCTT has a switch fluorescence ratio of 0.9593 ± 0.0019.
GCTGATGACT was tested, and the switch fluorescence ratio was 0.9918 ± 0.0063.
Sequence GCTGATGGGC has a switch fluorescence ratio of 1.05 ± 0.044.
With GCTGATGTAT the switch fluorescence ratio was 0.999 ± 0.026.
GCTGCAAGGG showed a switch fluorescence ratio of 1.07 ± 0.063.
GCTGCAGGGC showed a switch fluorescence ratio of 1.37 ± 0.44.
For GCTGCGCATT, the switch fluorescence ratio was 1.94 ± 0.028.
Sequence GCTGCGGGCC has a switch fluorescence ratio of 1.02 ± 0.033.
GCTGCGGGGT was tested, and the switch fluorescence ratio was 0.993 ± 0.045.
In the case of GCTGCTGGGT, the switch fluorescence ratio is reported as 1.01 ± 0.032.
With GCTGGAGGAA the switch fluorescence ratio was 1.07 ± 0.018.
For GCTGGATCCG, the switch fluorescence ratio was 1.07 ± 0.11.
For GCTGGCCGGT, the switch fluorescence ratio was 0.989 ± 0.021.
GCTGGCTCGT was tested, and the switch fluorescence ratio was 1.01 ± 0.013.
GCTGGGAGGT was tested, and the switch fluorescence ratio was 0.984 ± 0.02.
GCTGGGCTTG was tested, and the switch fluorescence ratio was 0.9947 ± 0.0033.
In the case of GCTGGGGAAG, the switch fluorescence ratio is reported as 1.02 ± 0.019.
GCTGGGGATA gave a switch fluorescence ratio of 1.03 ± 0.032.
For GCTGGGGCGG, the switch fluorescence ratio was 0.98 ± 0.029.
In the case of GCTGGGGGGA, the switch fluorescence ratio is reported as 0.981 ± 0.033.
GCTGGGGTAT was tested, and the switch fluorescence ratio was 0.984 ± 0.015.
GCTGGGGTGG showed a switch fluorescence ratio of 1.01 ± 0.05.
Sequence GCTGGTAATG has a switch fluorescence ratio of 1.01 ± 0.021.
Sequence GCTGGTTTGG has a switch fluorescence ratio of 0.972 ± 0.052.
For GCTGGTTTGT, the switch fluorescence ratio was 0.989 ± 0.013.
GCTGTAAAAA gave a switch fluorescence ratio of 1.08 ± 0.063.
GCTGTAAATT gave a switch fluorescence ratio of 0.982 ± 0.019.
GCTGTAATAT showed a switch fluorescence ratio of 1.11 ± 0.015.
Sequence GCTGTAGCGC has a switch fluorescence ratio of 1.06 ± 0.035.
Work on GCTGTAGGAT yielded a switch fluorescence ratio of 0.984 ± 0.017.
GCTGTAGGTC gave a switch fluorescence ratio of 1.04 ± 0.013.
In the case of GCTGTTAATG, the switch fluorescence ratio is reported as 0.984 ± 0.006.
Sequence GCTGTTTGAT has a switch fluorescence ratio of 0.959 ± 0.04.
With GCTGTTTGCT the switch fluorescence ratio was 1.01 ± 0.034.
GCTGTTTTGG showed a switch fluorescence ratio of 0.965 ± 0.027.
Sequence GCTGTTTTTA has a switch fluorescence ratio of 0.981 ± 0.022.
GCTTAAATTT gave a switch fluorescence ratio of 1 ± 0.016.
GCTTACGGTG was tested, and the switch fluorescence ratio was 1.01 ± 0.02.
For GCTTAGTGTC, the switch fluorescence ratio was 0.975 ± 0.043.
Sequence GCTTATAATG has a switch fluorescence ratio of 0.997 ± 0.031.
With GCTTATACGA the switch fluorescence ratio was 1.55 ± 0.012.
GCTTATCTAA was tested, and the switch fluorescence ratio was 0.997 ± 0.016.
Work on GCTTATGCGG yielded a switch fluorescence ratio of 0.949 ± 0.014.
In the case of GCTTATGTAC, the switch fluorescence ratio is reported as 1.16 ± 0.019.
GCTTCAGGGA was tested, and the switch fluorescence ratio was 1.02 ± 0.019.
Sequence GCTTCAGGTC has a switch fluorescence ratio of 1.05 ± 0.074.
GCTTCCTAAG showed a switch fluorescence ratio of 1.139 ± 0.0072.
In the case of GCTTCCTCTA, the switch fluorescence ratio is reported as 1.74 ± 1.
GCTTCGGAGG showed a switch fluorescence ratio of 1.015 ± 0.0024.
For GCTTCGGAGT, the switch fluorescence ratio was 1.059 ± 0.01.
Sequence GCTTCGGATC has a switch fluorescence ratio of 1.22 ± 0.038.
GCTTCTCTTA showed a switch fluorescence ratio of 0.974 ± 0.013.
Work on GCTTCTGGGT yielded a switch fluorescence ratio of 0.996 ± 0.017.
Work on GCTTCTTGTT yielded a switch fluorescence ratio of 1 ± 0.015.
GCTTCTTTGT was tested, and the switch fluorescence ratio was 0.9984 ± 0.0058.
GCTTGAGGAA gave a switch fluorescence ratio of 0.982 ± 0.034.
Work on GCTTGAGGTA yielded a switch fluorescence ratio of 1.02 ± 0.054.
Sequence GCTTGAGTTA has a switch fluorescence ratio of 0.9852 ± 0.0077.
GCTTGATCCA showed a switch fluorescence ratio of 1.01 ± 0.018.
In the case of GCTTGCAAAG, the switch fluorescence ratio is reported as 1.007 ± 0.0031.
Work on GCTTGCAAGG yielded a switch fluorescence ratio of 0.991 ± 0.017.
GCTTGCATTT was tested, and the switch fluorescence ratio was 1.02 ± 0.035.
Sequence GCTTGGATGT has a switch fluorescence ratio of 1.0207 ± 0.00092.
Sequence GCTTGGGCAG has a switch fluorescence ratio of 1.02 ± 0.045.
GCTTGGGGGA gave a switch fluorescence ratio of 0.998 ± 0.041.
For GCTTGGTCGT, the switch fluorescence ratio was 1.03 ± 0.024.
For GCTTGTGATC, the switch fluorescence ratio was 1.01 ± 0.028.
GCTTTAAGGG gave a switch fluorescence ratio of 0.995 ± 0.024.
In the case of GCTTTAATAA, the switch fluorescence ratio is reported as 0.991 ± 0.077.
In the case of GCTTTACAGA, the switch fluorescence ratio is reported as 1 ± 0.016.
Sequence GCTTTACTCA has a switch fluorescence ratio of 1.36 ± 0.049.
For GCTTTAGGAT, the switch fluorescence ratio was 1.01 ± 0.04.
Sequence GCTTTAGTCA has a switch fluorescence ratio of 0.967 ± 0.034.
In the case of GCTTTATGTT, the switch fluorescence ratio is reported as 0.9938 ± 0.0015.
Work on GCTTTATTCC yielded a switch fluorescence ratio of 1.06 ± 0.018.
Work on GCTTTGGCTT yielded a switch fluorescence ratio of 1 ± 0.03.
GCTTTGTATG was tested, and the switch fluorescence ratio was 0.9678 ± 0.0094.
For GCTTTTAAAG, the switch fluorescence ratio was 1.04 ± 0.02.
GCTTTTATCA showed a switch fluorescence ratio of 0.978 ± 0.01.
GCTTTTCAGC gave a switch fluorescence ratio of 1.01 ± 0.038.
For GCTTTTCGGG, the switch fluorescence ratio was 1.02 ± 0.02.
GCTTTTGAGG showed a switch fluorescence ratio of 1.04 ± 0.012.
GCTTTTGGTG gave a switch fluorescence ratio of 1.02 ± 0.032.
For GCTTTTTATA, the switch fluorescence ratio was 1.02 ± 0.027.
In the case of GCTTTTTGCG, the switch fluorescence ratio is reported as 1.01 ± 0.03.
GGAAAAAATG was tested, and the switch fluorescence ratio was 1 ± 0.048.
GGAAAACTGG was tested, and the switch fluorescence ratio was 1.01 ± 0.0017.
In the case of GGAAAAGTTG, the switch fluorescence ratio is reported as 0.9848 ± 0.0083.
Work on GGAAAATAGT yielded a switch fluorescence ratio of 1.02 ± 0.047.
With GGAAAATTCT the switch fluorescence ratio was 1.01 ± 0.013.
With GGAAACTCTC the switch fluorescence ratio was 1 ± 0.015.
With GGAAAGGGGG the switch fluorescence ratio was 1.01 ± 0.064.
In the case of GGAAAGTACG, the switch fluorescence ratio is reported as 1.16 ± 0.045.
In the case of GGAAATATTA, the switch fluorescence ratio is reported as 1.04 ± 0.04.
In the case of GGAAATTGAG, the switch fluorescence ratio is reported as 0.999 ± 0.021.
With GGAACCGGGT the switch fluorescence ratio was 1.029 ± 0.0086.
GGAAGAGGGG was tested, and the switch fluorescence ratio was 0.991 ± 0.016.
GGAAGAGGGT was tested, and the switch fluorescence ratio was 0.997 ± 0.052.
Work on GGAAGATGTT yielded a switch fluorescence ratio of 0.985 ± 0.014.
GGAAGCGACA was tested, and the switch fluorescence ratio was 0.988 ± 0.037.
For GGAAGGAGGG, the switch fluorescence ratio was 1 ± 0.033.
In the case of GGAAGGCATA, the switch fluorescence ratio is reported as 0.9829 ± 0.0096.
Work on GGAAGGCCTA yielded a switch fluorescence ratio of 0.954 ± 0.017.
For GGAAGGGATT, the switch fluorescence ratio was 1.05 ± 0.08.
In the case of GGAAGGGCGG, the switch fluorescence ratio is reported as 1.01 ± 0.048.
Work on GGAAGTAAAA yielded a switch fluorescence ratio of 1.03 ± 0.076.
GGAAGTCGGT gave a switch fluorescence ratio of 0.968 ± 0.022.
GGAAGTCGTT was tested, and the switch fluorescence ratio was 0.994 ± 0.016.
In the case of GGAAGTTACA, the switch fluorescence ratio is reported as 1.06 ± 0.016.
With GGAATAATTT the switch fluorescence ratio was 1.51 ± 0.73.
Work on GGAATAGGAG yielded a switch fluorescence ratio of 1.037 ± 0.0095.
GGAATAGTAG was tested, and the switch fluorescence ratio was 1.003 ± 0.0065.
Sequence GGAATCAAGG has a switch fluorescence ratio of 1.02 ± 0.035.
With GGAATCCGTA the switch fluorescence ratio was 1.05 ± 0.046.
GGAATCTAGT gave a switch fluorescence ratio of 0.999 ± 0.018.
In the case of GGAATGGGCG, the switch fluorescence ratio is reported as 1.02 ± 0.042.
Sequence GGAATGGGTC has a switch fluorescence ratio of 0.9736 ± 0.0087.
GGAATGGTCG was tested, and the switch fluorescence ratio was 0.977 ± 0.13.
For GGAATGTGCG, the switch fluorescence ratio was 0.9794 ± 0.0042.
GGAATGTTAG showed a switch fluorescence ratio of 0.986 ± 0.012.
GGAATTACTG gave a switch fluorescence ratio of 1.04 ± 0.033.
GGAATTGGGC showed a switch fluorescence ratio of 1.03 ± 0.022.
For GGAATTTCTG, the switch fluorescence ratio was 0.945 ± 0.014.
With GGACAATTTT the switch fluorescence ratio was 0.977 ± 0.0015.
Work on GGACACTACC yielded a switch fluorescence ratio of 1.25 ± 0.036.
Sequence GGACAGAGTT has a switch fluorescence ratio of 0.9801 ± 0.0013.
Sequence GGACATTTAG has a switch fluorescence ratio of 1.03 ± 0.017.
GGACCATGAC was tested, and the switch fluorescence ratio was 1.14 ± 0.0075.
GGACCCAATG gave a switch fluorescence ratio of 0.986 ± 0.011.
GGACCGCCTG was tested, and the switch fluorescence ratio was 1.01 ± 0.011.
In the case of GGACCTGGCG, the switch fluorescence ratio is reported as 1.08 ± 0.15.
In the case of GGACGGGGGA, the switch fluorescence ratio is reported as 1.02 ± 0.054.
For GGACGTGTTG, the switch fluorescence ratio was 0.983 ± 0.033.
GGACTAGAGC was tested, and the switch fluorescence ratio was 1.01 ± 0.069.
GGACTAGGGA gave a switch fluorescence ratio of 1.01 ± 0.018.
Work on GGACTAGGTG yielded a switch fluorescence ratio of 1.16 ± 0.044.
GGACTCCCGG showed a switch fluorescence ratio of 0.99 ± 0.011.
With GGACTCGGGG the switch fluorescence ratio was 1.04 ± 0.043.
GGACTGGAGC showed a switch fluorescence ratio of 0.9905 ± 0.0021.
